Measured values taken from patent US20050281828A1 (published 2005).

What was measured:
[1] = biological target: T1, L-SIGN receptor on cells (K562/L-SIGN) (human, UniProt Q9H2X3 1-399); assay: flow cytometry, K562/L-SIGN cells
T1 construct: whole, on cells; also called L-SIGN on LSECs
T1 sequence (looked up): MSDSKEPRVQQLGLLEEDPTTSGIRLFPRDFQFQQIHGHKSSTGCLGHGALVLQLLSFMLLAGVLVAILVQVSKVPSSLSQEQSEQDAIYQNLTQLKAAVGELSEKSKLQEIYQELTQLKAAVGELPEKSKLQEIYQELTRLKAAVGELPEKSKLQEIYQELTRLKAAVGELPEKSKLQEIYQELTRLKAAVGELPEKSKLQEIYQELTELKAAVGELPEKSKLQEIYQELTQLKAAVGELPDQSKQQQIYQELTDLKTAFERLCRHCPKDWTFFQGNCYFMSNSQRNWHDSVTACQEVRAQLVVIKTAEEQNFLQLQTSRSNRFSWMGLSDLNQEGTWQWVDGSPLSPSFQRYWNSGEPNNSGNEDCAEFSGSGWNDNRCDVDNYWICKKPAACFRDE

[2] = biological target: T2, recombinant human DC-SIGN (human, UniProt Q9NNX6 62-404); assay: ELISA, recombinant DC-SIGN
T2 construct: Added to plates coated with anti-human Fc, so probably an Fc fusion
T2 sequence (looked up): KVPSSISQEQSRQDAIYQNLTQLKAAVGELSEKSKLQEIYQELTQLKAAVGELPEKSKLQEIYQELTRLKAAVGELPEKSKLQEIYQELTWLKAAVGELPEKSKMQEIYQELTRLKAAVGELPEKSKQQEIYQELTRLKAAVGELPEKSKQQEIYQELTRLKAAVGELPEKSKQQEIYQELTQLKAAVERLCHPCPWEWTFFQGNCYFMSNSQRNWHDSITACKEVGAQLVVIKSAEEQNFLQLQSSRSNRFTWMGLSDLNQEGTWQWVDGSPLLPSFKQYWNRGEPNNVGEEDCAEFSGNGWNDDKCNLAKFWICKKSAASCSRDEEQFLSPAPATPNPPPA

[3] = biological target: T3, recombinant human L-SIGN (L-SIGNFc fusion protein) (human, UniProt Q9H2X3 78-399); assay: ELISA, recombinant L-SIGN
T3 construct: also called DC-SIGNR; human DC-SIGNR; not shown: Fc part of the fusion
T3 sequence (looked up): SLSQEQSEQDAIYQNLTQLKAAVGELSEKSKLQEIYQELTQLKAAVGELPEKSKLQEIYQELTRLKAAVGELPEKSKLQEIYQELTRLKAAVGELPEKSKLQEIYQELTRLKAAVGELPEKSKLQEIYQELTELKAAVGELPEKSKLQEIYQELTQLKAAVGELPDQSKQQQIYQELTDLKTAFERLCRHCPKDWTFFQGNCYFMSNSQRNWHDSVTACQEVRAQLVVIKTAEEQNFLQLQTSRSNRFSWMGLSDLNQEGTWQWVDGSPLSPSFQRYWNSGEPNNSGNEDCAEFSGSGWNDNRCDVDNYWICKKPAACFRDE

[4] = biological target: T4, DC-SIGN receptor on cells (K562/DC-SIGN) (human, UniProt Q9NNX6 1-404); assay: flow cytometry, K562/DC-SIGN cells
T4 construct: whole, on cells
T4 sequence (looked up): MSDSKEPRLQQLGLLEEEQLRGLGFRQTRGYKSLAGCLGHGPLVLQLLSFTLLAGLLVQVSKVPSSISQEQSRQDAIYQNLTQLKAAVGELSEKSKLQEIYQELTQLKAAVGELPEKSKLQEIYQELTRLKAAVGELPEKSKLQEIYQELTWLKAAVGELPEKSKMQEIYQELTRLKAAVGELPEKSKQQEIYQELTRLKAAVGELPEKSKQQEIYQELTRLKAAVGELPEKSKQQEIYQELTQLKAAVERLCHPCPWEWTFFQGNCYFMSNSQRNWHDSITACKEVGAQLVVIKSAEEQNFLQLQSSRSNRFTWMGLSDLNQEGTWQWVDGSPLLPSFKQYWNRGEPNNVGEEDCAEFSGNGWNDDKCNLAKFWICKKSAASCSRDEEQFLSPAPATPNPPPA

B1: IgG1k clone A10 (Fab, V domains shown)
VH: EVQLQQSGPELEKPGASVKISCKASGYSFTGYNMNWVKQSNGKSLEWIGNIDPYYGDITYNQKFKGKATLTVDKSSSTAYMQLKSLTSEDSAVYYCARTATALYTMDYWGQGTSVTVSS
VL: EIVLTQSPAIMSASLGERVTMTCTASSSVSSSYLHWYQQKPGSSPKLWIYSTSNLASGVPARFSGSGSGTSYSLTISSMEAEDAATYYCHQYHRSPQTFGGGTKLEIK
notes: phage-Fab screening
- Geo. Mean Fluorescence [1]: 21.3
- OD405 [2]: 0.1 OD405
- OD405 [3]: 2.9 OD405

B2: IgG1k clone B7 (Fab, V domains shown)
VH: EVQLQQSGPELEKPGASVKISCKASGYSFTGYNMNWVKQSSGKSLEWIGNFDPYYGVITYNQKFKGKATLTVDKSSSTAYMQLKSLTSEDSAVYYCARTATALYTMDYWGQGTSVTVSS
VL: EIVLTQSPAIMSASPGEKVTMTCRASSSVSSSYLHWYQQKSGASPKLWIYSTSNLASGVPARFSGSGSGTSYSLTISSVEAEDAATYYCQQYSGYPLTFGSGTKLEIK
notes: phage-Fab screening
- Geo. Mean Fluorescence [1]: 90.9
- OD405 [2]: 0.1 OD405
- OD405 [3]: 2.7 OD405

B3: L-SIGN Fab clone C7 (soluble, purified) (Fab, V domains shown)
VH: EVQLQQSGPELEKPGASVKISCKASGYSFTGYNMNWVKQSSGKSLEWIGNFDPYYGVITYNQKFKGKATLTVDKSSSTAYMQLKSLTSEDSAVYYCARTATALYTMDYWGQGTSVTVSS
VL: EIVLTQSPAIMSASPGEKVTMTCRASSSVSSSYLHWYQQKSGASPKLWIYSTSNLASGVPARFSGSGSGTSYSLTISSVEAEDAATYYCQQYSGYPLTFGSGTKLEIK
- binding result [4]: no binding (tested: 20 ug/ml)

B4: IgG1k clone C7 (phage-Fab screening) (Fab, V domains shown)
VH: EVQLQQSGPELEKPGASVKISCKASGYSFTGYNMNWVKQSSGKSLEWIGNFDPYYGVITYNQKFKGKATLTVDKSSSTAYMQLKSLTSEDSAVYYCARTATALYTMDYWGQGTSVTVSS
VL: EIVLTQSPAIMSASPGEKVTMTCRASSSVSSSYLHWYQQKSGASPKLWIYSTSNLASGVPARFSGSGSGTSYSLTISSVEAEDAATYYCQQYSGYPLTFGSGTKLEIK
- Geo. Mean Fluorescence [1]: 101
- OD405 [2]: 0.1 OD405
- OD405 [3]: 3.5 OD405

B5: IgG1k clone D8 (Fab, V domains shown)
VH: EVQLQQSGPELEKPGASVKISCKASGYSFTGYNMNWVKQSNGKSLEWIGNIDPYYGGSSYNQKFKGKATLTVDKSSSTAYMQLKSLTSEDSAVYYCARTATALYTMDYWGQGTSVTVSS
VL: EIVLTQSPAIMSASPGEKVTMTCRASSSVSSSYLHWYQQKSGASPKLWIYSTSNLASGVPARFSGSGSGTSYSLTISSVEAEDAATYYCQQYSGYPGTFGGGTKLEIK
notes: phage-Fab screening
- Geo. Mean Fluorescence [1]: 17.3
- OD405 [2]: 0.1 OD405
- OD405 [3]: 2.1 OD405
